Assay results: patent US20080166345A1, “MEDICAMENTS COMPRISING GENE RECOMBINANT ANTIBODY AGAINST GANGLIOSIDE GD3” (KYOWA HAKKO KOGYO CO., LTD., priority 2001, published 2008)

Assay: GD3 binding ELISA of transient expression (COS-7) culture supernatants
Settings: COS-7 culture supernatant; FIG. 14, FIG. 17
Description: Each ganglioside (2 nmol) was dissolved in […] of ethanol solution containing 10 μg of dipalmitoylphosphatidylcholine (manufactured by SIGMA) and 5 μg of cholesterol (manufactured by SIGMA). In each well of a 96 well plate for ELISA (manufactured by Greiner), 20 μl of the solution (becomes 20 pmol/well) or 20 μl of the solution diluted with ethanol was respectively dispensed, followed by air-drying, and then PBS containing 1% BSA (hereinafter referred to as “1% BSA-PBS”) was added in 100 μl/well and allowed to react at room temperature for 1 hour to thereby block remaining active groups. After discarding 1% BSA-PBS, culture supernatants of transformants or diluted solutions of humanized antibodies were added in 50 μl/well and allowed to react at room temperature for 1 hour. […] After the reaction and subsequent washing with Tween-PBS, an ABTS substrate solution (a solution prepared by dissolving 0.55 g of 2,2′-azinobis(3-ethylbenzothiazoline-6-sulfonic acid) in 1 L of 0.1 M citrate buffer (pH 4.2) and adding 1 μl/ml hydrogen peroxide just before the use) was added in 50 μl/well for color development and the absorbance at 415 nm (hereinafter referred to as “OD415”) was measured. […]

B1: pT641HLCDR: anti-GD3 CDR-grafted antibody by transient expression; VH hKM641H (SEQ ID NO:9), VL hKM641L (SEQ ID NO:10) (antibody, V domains shown)
VH: EVQLVESGGDFVQPGGSLRVSCAASGFAFSHYAMSWVRQAPGKGLEWVAYISSGGSGTYYSDSVKGRFTISRDNSKNTLYLQMRSLRAEDSAVYFCTRVKLGTYYFDSWGQGTLLTVSS
VL: DIQMTQSPSSLSASVGDRVTITCSASQDISNYLNWYQQKPDKAPKLLIFYSSNLHSGVPSRFSGGGSGTDYTLTISSLQPEDIATYFCHQYSKLPWTFGQGTKVEIKR
- relative activity (%) of binding to GD3 when the activity of anti-GD3 chimeric antibody is defined as 100: about 5%
